No end group written: not given here.
Tests used:
[1] = biological target: Met (hepatocyte growth factor receptor) on Hep3B cells (human) (UniProt P08581); test: flow cytometry saturation binding on cytochalasin D-treated Hep3B cells, 1 hour at 37 C; specific binding = total minus binding with saturating unlabeled HGF; apparent Kd of the multivalent particle
ephrin B2 (EB2) on cells [2] = biological target: T1, ephrin B2 (EB2) on cells (human, UniProt P52799 28-333); test: flow cytometry, EB2-positive HEK 293 against EB2-negative parental CHO-K1
T1 construct: whole, on cells; The species is stated as human for the CHO-K1 transfectants; also called human ephrin B2
T1 sequence (P52799 28-333): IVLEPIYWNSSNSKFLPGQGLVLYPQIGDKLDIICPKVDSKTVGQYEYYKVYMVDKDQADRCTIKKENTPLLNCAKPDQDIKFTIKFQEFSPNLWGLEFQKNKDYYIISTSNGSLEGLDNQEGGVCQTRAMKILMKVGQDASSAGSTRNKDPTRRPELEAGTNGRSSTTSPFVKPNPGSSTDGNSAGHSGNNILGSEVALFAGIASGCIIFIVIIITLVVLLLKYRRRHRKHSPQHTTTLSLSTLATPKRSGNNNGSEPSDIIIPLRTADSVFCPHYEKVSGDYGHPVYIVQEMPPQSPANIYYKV

ephrin B2 (EB2) on cells [3] = biological target: T1, ephrin B2 (EB2) on cells; test: phage display selection on CHO-K1 cells expressing human EB2, with counter-selection on parental CHO-K1 and on CHO-K1 expressing ephrin B1
[4] = biological target: T2, recombinant human Met (rhMet), fused to the Fc domain of human IgG (human, UniProt P08581 25-932); test: phage display selection on rhMet-Fc, five rounds; phage ELISA on rhMet
T2 construct: also called MET receptor; hepatocyte growth factor receptor; not shown: Fc domain of human IgG
T2 sequence (P08581 25-932 limits assumed): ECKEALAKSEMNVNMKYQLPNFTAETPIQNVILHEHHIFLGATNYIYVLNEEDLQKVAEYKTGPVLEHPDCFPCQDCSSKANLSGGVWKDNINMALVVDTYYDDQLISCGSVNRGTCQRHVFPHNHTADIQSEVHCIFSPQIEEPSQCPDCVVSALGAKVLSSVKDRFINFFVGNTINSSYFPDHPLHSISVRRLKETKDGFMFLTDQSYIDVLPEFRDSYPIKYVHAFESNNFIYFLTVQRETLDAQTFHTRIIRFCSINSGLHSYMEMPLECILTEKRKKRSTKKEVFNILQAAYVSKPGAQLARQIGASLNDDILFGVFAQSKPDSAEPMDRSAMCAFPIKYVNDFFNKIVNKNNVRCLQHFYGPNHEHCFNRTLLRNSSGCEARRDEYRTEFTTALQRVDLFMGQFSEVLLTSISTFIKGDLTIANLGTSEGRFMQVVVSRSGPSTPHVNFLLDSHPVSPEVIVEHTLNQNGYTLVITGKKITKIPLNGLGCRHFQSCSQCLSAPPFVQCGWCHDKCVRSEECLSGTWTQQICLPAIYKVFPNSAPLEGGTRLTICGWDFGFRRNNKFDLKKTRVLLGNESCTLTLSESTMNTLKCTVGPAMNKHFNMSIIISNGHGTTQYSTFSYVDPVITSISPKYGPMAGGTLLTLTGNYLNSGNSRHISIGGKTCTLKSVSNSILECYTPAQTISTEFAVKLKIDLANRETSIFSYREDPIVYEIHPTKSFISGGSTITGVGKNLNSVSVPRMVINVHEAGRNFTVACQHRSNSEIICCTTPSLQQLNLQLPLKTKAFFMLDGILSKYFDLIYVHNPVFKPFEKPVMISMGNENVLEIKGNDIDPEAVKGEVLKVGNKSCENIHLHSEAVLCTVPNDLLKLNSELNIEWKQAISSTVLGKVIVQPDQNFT
Method: Peptides at 1×10¹¹ pfu/mL were incubated with 100 nM of recombinant human Met (rhMet), fused to the Fc domain of human IgG, for 1 hour at room temperature. […] Bound phage clones were eluted with a low-pH buffer (0.2 M glycine with 1 mg/mL BSA, pH 2.2), and elutants were amplified via infection of the host bacterium (E. coli ER2738).
1×10¹¹ pfu/mL were incubated with 100 nM of recombinant human Met (rhMet), fused to the Fc domain of human IgG, for 1 hour at room temperature. […] Bound phage clones were eluted with a low-pH buffer (0.2 M glycine with 1 mg/mL BSA, pH 2.2), and elutants were amplified via infection of the host bacterium (E. coli ER2738). […] Peptides specific for protein A and protein G were avoided by alternating rounds of selection between protein A-coated magnetic particles and protein G-coated magnetic particles. After five rounds of selection, DNA was recovered from 40 individual clones and sequenced using the −96 gIII primer provided with the Ph.D.™-7 kit.

Chain of Met (hepatocyte growth factor receptor) on Hep3B cells (human) (P08581 25-1390): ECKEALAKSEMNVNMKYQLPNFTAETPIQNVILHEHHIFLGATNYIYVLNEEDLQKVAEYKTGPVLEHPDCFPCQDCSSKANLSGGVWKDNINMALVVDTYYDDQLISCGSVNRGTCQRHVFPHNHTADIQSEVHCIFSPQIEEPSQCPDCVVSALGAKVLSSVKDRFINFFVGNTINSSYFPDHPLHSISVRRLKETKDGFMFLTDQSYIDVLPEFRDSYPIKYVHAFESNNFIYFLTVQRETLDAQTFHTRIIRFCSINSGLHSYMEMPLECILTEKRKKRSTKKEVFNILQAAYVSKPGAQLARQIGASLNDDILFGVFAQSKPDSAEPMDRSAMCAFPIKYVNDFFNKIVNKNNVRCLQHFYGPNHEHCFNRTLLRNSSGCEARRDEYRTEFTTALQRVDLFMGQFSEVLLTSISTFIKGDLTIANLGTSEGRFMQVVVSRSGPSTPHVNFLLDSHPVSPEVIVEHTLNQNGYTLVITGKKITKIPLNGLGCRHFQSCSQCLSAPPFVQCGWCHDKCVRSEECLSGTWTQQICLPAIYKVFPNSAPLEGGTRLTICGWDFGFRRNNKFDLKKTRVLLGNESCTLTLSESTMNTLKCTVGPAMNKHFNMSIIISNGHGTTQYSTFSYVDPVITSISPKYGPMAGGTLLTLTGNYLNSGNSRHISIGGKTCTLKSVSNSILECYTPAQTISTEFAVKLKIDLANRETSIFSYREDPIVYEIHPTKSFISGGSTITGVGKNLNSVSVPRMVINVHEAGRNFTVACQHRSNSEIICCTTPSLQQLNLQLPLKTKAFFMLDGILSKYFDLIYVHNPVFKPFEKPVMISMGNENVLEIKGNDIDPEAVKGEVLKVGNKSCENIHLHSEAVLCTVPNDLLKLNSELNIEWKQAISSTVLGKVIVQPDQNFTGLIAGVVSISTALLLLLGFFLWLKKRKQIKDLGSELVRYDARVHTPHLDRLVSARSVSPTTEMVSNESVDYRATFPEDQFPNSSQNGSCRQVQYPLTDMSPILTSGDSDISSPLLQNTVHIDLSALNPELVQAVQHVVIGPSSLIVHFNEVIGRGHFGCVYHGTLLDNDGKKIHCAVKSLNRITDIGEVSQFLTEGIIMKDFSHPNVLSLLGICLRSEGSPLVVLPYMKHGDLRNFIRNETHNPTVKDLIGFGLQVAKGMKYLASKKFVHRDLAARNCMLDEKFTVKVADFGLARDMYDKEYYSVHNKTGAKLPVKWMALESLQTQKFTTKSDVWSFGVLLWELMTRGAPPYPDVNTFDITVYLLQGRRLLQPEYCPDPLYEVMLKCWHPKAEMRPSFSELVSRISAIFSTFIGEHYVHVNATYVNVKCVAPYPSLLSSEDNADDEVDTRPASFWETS

B1: MC40-targeted protocells (mesoporous silica nanoparticle-supported lipid bilayer modified with 0.015 wt %, ~6 peptides/particle, of the MC40 targeting peptide) (peptide, not shown: small tags and cut ends)
peptide: ASVHFPPC
modifications: also: C-terminal Cys conjugated via sulfhydryl-to-amine crosslinker to DOPE in the protocell lipid bilayer
- Kd [1]: 1.05 nM

B2: TGAILHP-targeted MSN-SLBs, low peptide valency (0.015 wt % or ~5 peptides/particle) (other)
peptide: TGAILHP
modifications: not fully specified
notes: Multivalent display on mesoporous silica nanoparticle-supported lipid bilayers; also called MSN-SLBs modified with 0.015 wt % of TGAILHP and 10 wt % PEG-2000
- fold higher affinity for HEK 293 cells than for EB2-negative cells (parental CHO-K1) (ephrin B2 (EB2) on cells [2]): 1000 fold

B3: TGAILHP peptide (SEQ ID NO: 18) (peptide)
peptide: TGAILHP
notes: 7-mer from phage display; It was selected on CHO-K1 cells expressing human ephrin B2, with counter-selection on parental CHO-K1 and on CHO-K1 expressing human ephrin B1; also called ephrin B2 targeting peptide
- binding result (ephrin B2 (EB2) on cells [3]): binds

B4: MET binding peptide WPRLTNM (SEQ ID NO: 5) (peptide)
peptide: WPRLTNM
notes: 7-mer from Ph.D.-7 phage display, tested as a phage clone
- binding result [4]: binds

B5: MC40 targeting peptide ASVHFPP (SEQ ID NO: 1) (peptide)
peptide: ASVHFPP
notes: 7-mer selected from the Ph.D.-7 phage display library; also called MC40 clone
- binding result [4]: binds

B6: MET binding peptide TSPVALL (SEQ ID NO: 3) (peptide)
peptide: TSPVALL
notes: as for B4
- binding result [4]: binds

B7: MET binding peptide IPLKVHP (SEQ ID NO: 4) (peptide)
peptide: IPLKVHP
notes: as for B4
- binding result [4]: binds

B8: MET binding peptide TATFWFQ (SEQ ID NO: 2) (peptide)
peptide: TATFWFQ
notes: as for B4
- binding result [4]: binds
